Data from the Human Domainome abundance scans (Beltran et al. 2025).
± gives the uncertainty stated by the source.

B1: POU domain, class 3, transcription factor 3, residues 408 to 463; numbered along this chain, P20264 (parent)
chain: KKRTSIEVSVKGALESHFLKCPKPSAQEITNLADSLQLEKEVVRVWFCNRRQKEKR

Variants of: B1
Assay: abundance fitness (aPCA) (normalised: wild type 0, dead -1); higher = more abundant; growth selection in yeast, the domain comes from the species named
Settings: Homo sapiens

Row | Variant | abundance fitness
1 | KKRTSIEVSVKGALESHFLKCPKPSAQEITNLADSLQLEKEVVRVWFCNREQKEKR | -0.126 ± 0.092
2 | KKRTSIEVSVKGALESHFLKCPKPSAQEITNLADSLQLEKEVVRVWFCNRNQKEKR | -0.175 ± 0.28
3 | KKRTSIEVSVKGALESHFLKCPKPSAQEITNLADSLQLEKEVVRVWFCNRFQKEKR | -0.385 ± 0.23
4 | KKRTSIEVSVKGALESHFLKCPKPSAQEITNLADSLQLEKEVVRVWFCNRQQKEKR | -0.164 ± 0.12
5 | KKRTSIEVSVKGALESHFLKCPKPSAQEITNLADSLQLEKEVVRVWFCNRKQKEKR | -0.534 ± 0.18
6 | KKRTSIEVSVKGALESHFLKCPKPSAQEITNLADSLQLEKEVVRVWFCNRIQKEKR | -0.207 ± 0.27
7 | KKRTSIEVSVKGALESHFLKCPKPSAQEITNLADSLQLEKEVVRVWFCNRWQKEKR | 0.018 ± 0.081
8 | KKRTSIEVSVKGALESHFLKCPKPSAQEITNLADSLQLEKEVVRVWFCNRAQKEKR | -0.105 ± 0.088
9 | KKRTSIEVSVKGALESHFLKCPKPSAQEITNLADSLQLEKEVVRVWFCNRGQKEKR | -0.156 ± 0.062
10 | KKRTSIEVSVKGALESHFLKCPKPSAQEITNLADSLQLEKEVVRVWFCNRPQKEKR | -0.608 ± 0.16
11 | KKRTSIEVSVKGALESHFLKCPKPSAQEITNLADSLQLEKEVVRVWFCNRHQKEKR | -0.361 ± 0.24
12 | KKRTSIEVSVKGALESHFLKCPKPSAQEITNLADSLQLEKEVVRVWFCNPRQKEKR | -0.853 ± 0.12
13 | KKRTSIEVSVKGALESHFLKCPKPSAQEITNLADSLQLEKEVVRVWFCNQRQKEKR | -0.275 ± 0.11
14 | KKRTSIEVSVKGALESHFLKCPKPSAQEITNLADSLQLEKEVVRVWFCNTRQKEKR | -0.883 ± 0.17
15 | KKRTSIEVSVKGALESHFLKCPKPSAQEITNLADSLQLEKEVVRVWFCNHRQKEKR | -0.668 ± 0.15
16 | KKRTSIEVSVKGALESHFLKCPKPSAQEITNLADSLQLEKEVVRVWFCNWRQKEKR | -0.883 ± 0.15
17 | KKRTSIEVSVKGALESHFLKCPKPSAQEITNLADSLQLEKEVVRVWFCNKRQKEKR | -0.364 ± 0.14
18 | KKRTSIEVSVKGALESHFLKCPKPSAQEITNLADSLQLEKEVVRVWFCNFRQKEKR | -0.875 ± 0.18
19 | KKRTSIEVSVKGALESHFLKCPKPSAQEITNLADSLQLEKEVVRVWFCNNRQKEKR | -0.919 ± 0.22
20 | KKRTSIEVSVKGALESHFLKCPKPSAQEITNLADSLQLEKEVVRVWFCNCRQKEKR | -0.75 ± 0.12
21 | KKRTSIEVSVKGALESHFLKCPKPSAQEITNLADSLQLEKEVVRVWFCNARQKEKR | -0.416 ± 0.073
22 | KKRTSIEVSVKGALESHFLKCPKPSAQEITNLADSLQLEKEVVRVWFCNYRQKEKR | -0.889 ± 0.18
23 | KKRTSIEVSVKGALESHFLKCPKPSAQEITNLADSLQLEKEVVRVWFCNMRQKEKR | -0.497 ± 0.11
24 | KKRTSIEVSVKGALESHFLKCPKPSAQEITNLADSLQLEKEVVRVWFCNIRQKEKR | -0.809 ± 0.22

Row | Variant | abundance fitness
25 | KKRTSIEVSVKGALESHFLKCPKPSAQEITNLADSLQLEKEVVRVWFCNLRQKEKR | -0.739 ± 0.09
26 | KKRTSIEVSVKGALESHFLKCPKPSAQEITNLADSLQLEKEVVRVWFCNVRQKEKR | -0.914 ± 0.089
27 | KKRTSIEVSVKGALESHFLKCPKPSAQEITNLADSLQLEKEVVRVWFCNERQKEKR | -0.538 ± 0.1
28 | KKRTSIEVSVKGALESHFLKCPKPSAQEITNLADSLQLEKEVVRVWFCNRRIKEKR | -0.186 ± 0.16
29 | KKRTSIEVSVKGALESHFLKCPKPSAQEITNLADSLQLEKEVVRVWFCNRRVKEKR | -0.112 ± 0.083
30 | KKRTSIEVSVKGALESHFLKCPKPSAQEITNLADSLQLEKEVVRVWFCNRRMKEKR | -0.194 ± 0.15
31 | KKRTSIEVSVKGALESHFLKCPKPSAQEITNLADSLQLEKEVVRVWFCNRRNKEKR | -0.17 ± 0.14
32 | KKRTSIEVSVKGALESHFLKCPKPSAQEITNLADSLQLEKEVVRVWFCNRREKEKR | 0.057 ± 0.14
33 | KKRTSIEVSVKGALESHFLKCPKPSAQEITNLADSLQLEKEVVRVWFCNRRDKEKR | 0.034 ± 0.12
34 | KKRTSIEVSVKGALESHFLKCPKPSAQEITNLADSLQLEKEVVRVWFCNRRRKEKR | -0.138 ± 0.069
35 | KKRTSIEVSVKGALESHFLKCPKPSAQEITNLADSLQLEKEVVRVWFCNRRHKEKR | -0.113 ± 0.15
36 | KKRTSIEVSVKGALESHFLKCPKPSAQEITNLADSLQLEKEVVRVWFCNRRTKEKR | -0.227 ± 0.13
37 | KKRTSIEVSVKGALESHFLKCPKPSAQEITNLADSLQLEKEVVRVWFCNRRWKEKR | -0.185 ± 0.1
38 | KKRTSIEVSVKGALESHFLKCPKPSAQEITNLADSLQLEKEVVRVWFCNRRLKEKR | -0.131 ± 0.078
39 | KKRTSIEVSVKGALESHFLKCPKPSAQEITNLADSLQLEKEVVRVWFCNRRFKEKR | -0.205 ± 0.14
40 | KKRTSIEVSVKGALESHFLKCPKPSAQEITNLADSLQLEKEVVRVWFCNRRKKEKR | -0.112 ± 0.14
41 | KKRTSIEVSVKGALESHFLKCPKPSAQEITNLADSLQLEKEVVRVWFCNRRCKEKR | -0.126 ± 0.11
42 | KKRTSIEVSVKGALESHFLKCPKPSAQEITNLADSLQLEKEVVRVWFCNRRAKEKR | 0.041 ± 0.081
43 | KKRTSIEVSVKGALESHFLKCPKPSAQEITNLADSLQLEKEVVRVWFCNRRSKEKR | 0.014 ± 0.09
44 | KKRTSIEVSVKGALESHFLKCPKPSAQEITNLADSLQLEKEVVRVWFCNRRPKEKR | -0.705 ± 0.14
45 | KKRTSIEVSVKGALESHFLKCPKPSAQEITNLADSLQLEKEVVRVWFCNRRYKEKR | -0.257 ± 0.14
46 | KKRTSIEVSVKGALESHFLKCPKPSAQEITNLADSLQLEKEVVRVWFCNRRGKEKR | -0.146 ± 0.074
47 | KKRTSIEVSVKGALESHFLKCPKPSAQEITNLADSLQLEKEVVRVWFCNRRQKAKR | -0.185 ± 0.074
